Source: patent US20160152728A1 (AFFEMED, published 2016)
Substitutions are numbered along the chain they refer to.

B1: scFv 469 (scFv, V domains shown)
VH: EVQLVQSGAEVKKPGESLKISCKGSGYSFNSYWIGWVRQMPGKGLEWMGIIYPGDSDTRYSPSFQGQVTISADKSISTAYLQWSSLKASDTAMYYCARLGSSWTNDAFDIWGQGTLVTVSS
VL: SYELTQPPSVSVSPGQTARITCSGDTLPKQYAYWYQQKPGQAPVLVIYKDSERPSGIPERFSGSSSGTTVTLTISGVQAEDEADYYCQSVDVSGTYVVFGGGTKLTVL
notes: One-chain scFv, His-tagged
B2: scFv 475 (scFv, V domains shown)
VH: B1 VH with N30T, G54D
VL: B1 VL with T26A, S51T, V92S
notes: One-chain scFv, His-tagged
B3: scFv 470 (scFv, V domains shown)
VH: B1 VH
VL: B1 VL with T26A, P28D, V92S, G94E
notes: One-chain scFv, His-tagged
B4: scFv 477 (scFv, V domains shown)
VH: B1 VH with N30S
VL: B1 VL with T26Y, S51T, V90A, V92A, V97Y
notes: One-chain scFv, His-tagged
B5: scFv 476 (scFv, V domains shown)
VH: B1 VH with N30T
VL: B1 VL with T26N, L27I, K29H, S51T, S55A, V90A, V92P, S93T, T95A, V97L
notes: One-chain scFv, His-tagged
B6: scFv 472 (scFv, V domains shown)
VH: B1 VH with N30G, S31Y, D57H
VL: B1 VL with T26A, S51T, V92S, Y96Q
notes: One-chain scFv, His-tagged
B7: scFv 471 (scFv, V domains shown)
VH: B1 VH with D57A, T58N
VL: B1 VL with T26Y, S51T, V92S, G94H, T95P, Y96S
notes: One-chain scFv, His-tagged
B8: scFv 474 (scFv, V domains shown)
VH: B1 VH with N30S, S31H, I51T, S56V, S61D
VL: B1 VL with T26A, Q30T, S51T, V90A, V92S, V97L
notes: One-chain scFv, His-tagged
B9: scFv 473 (scFv, V domains shown)
VH: B1 VH with N30S
VL: B1 VL with D25H, T26A, K29S, S51T, V92S, Y96S, V98I
notes: One-chain scFv, His-tagged
B10: scFv 478 (scFv, V domains shown)
VH: B1 VH with S56E
VL: B1 VL with T26A, S51T, V92P
notes: One-chain scFv, His-tagged
B11: TandAb EGFRvIII(ABC479)/CD3(v64) (bispecific antibody)
tandem diabody polypeptide (homodimer): DIQMTQSPSSLSASVGDRVTITCRSSTGAVTTSNYANWVQQKPGKAPKALIGGTNKRAPGVPSRFSGSLIGDKATLTISSLQPEDFATYYCALWYSNLWVFGQGTKVEIKQSGAEVKKPGEVQLVESLKISCKGSGYDFSSYWIGWVRQMPGKGLEWMGIIYPGDSDTIYSPSFQGQVTISADKSISTAYLQWSSLKASDTAMYYCARLGSSWTNDAFDIWGQGTLVTVSSSYELTQPPSVSVSPGQTARITCSGAALPEQYAYWYQQKPGQAPVLVIYKDSERPSGIPERFSGSSSGTTVTLTISGVQAEDEADYYCQSVDSSGTFYVFGGGTKLTVLEVQLVESGGGLVQPGGSLRLSCAASGFTFSTYAMNWVRQAPGKGLEWVGRIRSKYNNYATYYADSVKDRFTISRDDSKNSLYLQMNSLKTEDTAVYYCARHGNFGNSYVSYFAYWGQGTLVTVSS
notes: also called domain order (i) VL^CD3-VH^EGFRvIII-VL^EGFRvIII-VH^CD3
B12: TandAb EGFRvIII(ABC478)/CD3(v64) (bispecific antibody)
tandem diabody polypeptide (homodimer): DIQMTQSPSSLSASVGDRVTITCRSSTGAVTTSNYANWVQQKPGKAPKALIGGTNKRAPGVPSRFSGSLIGDKATLTISSLQPEDFATYYCALWYSNLWVFGQGTKVEIKEVQLVQSGAEVKKPGESLKISCKGSGYSFNSYWIGWVRQMPGKGLEWMGIIYPGDEDTRYSPSFQGQVTISADKSISTAYLQWSSLKASDTAMYYCARLGSSWTNDAFDIWGQGTLVTVSSSYELTQPPSVSVSPGQTARITCSGDALPKQYAYWYQQKPGQAPVLVIYKDTERPSGIPERFSGSSSGTTVTLTISGVQAEDEADYYCQSVDPSGTYVVFGGGTKLTVLEVQLVESGGGLVQPGGSLRLSCAASGFTFSTYAMNWVRQAPGKGLEWVGRIRSKYNNYATYYADSVKDRFTISRDDSKNSLYLQMNSLKTEDTAVYYCARHGNFGNSYVSYFAYWGQGTLVTVSS
notes: as for B11
B13: TandAb EGFRvIII(ABC479)/CD3, domain order (iv) VH^EGFRvIII-VL^CD3-VH^CD3-VL^EGFRvIII (bispecific antibody, part only; not given: CD3 domain and linkers, part only)
tandem diabody polypeptide (homodimer), part: QSGAEVKKPGEVQLVESLKISCKGSGYDFSSYWIGWVRQMPGKGLEWMGIIYPGDSDTIYSPSFQGQVTISADKSISTAYLQWSSLKASDTAMYYCARLGSSWTNDAFDIWGQGTLVTVSSSYELTQPPSVSVSPGQTARITCSGAALPEQYAYWYQQKPGQAPVLVIYKDSERPSGIPERFSGSSSGTTVTLTISGVQAEDEADYYCQSVDSSGTFYVFGGGTKLTVL
B14: scFv 479 (scFv, V domains shown)
VH: B1 VH with S28D, N30S, R59I
VL: B1 VL with D25A, T26A, K29E, V92S, Y96F, V97Y
notes: One-chain scFv, His-tagged
B15: EGFRvIII/CD3 tandem diabody with parental EGFRvIII binding domain Li3G30 and CD3 domain v64, domain order (i) VL^CD3-VH^EGFRvIII-VL^EGFRvIII-VH^CD3 … (bispecific antibody, part only; not given: CD3 v64 domain and linkers, not shown: small tags and cut ends)
chain, part: EVQLVQSGAEVKKPGESLKISCKGSGYSFTSYWIGWVRQMPGKGLEWMGIIYPGDSDTRYSPSFQGQVTISADKSISTAYLQWSSLKASDTAMYYCARLGSSWTNDAFDIWGQGTMVTVSSSYELTQPPSVSVSPGQTARITCSGDALPKQYAYWYQQKPGQAPVLVIYKDSERPSGIPERFSGSSSGTTVTLTISGVQAEDEADYYCQSADSSGTPLIVFGTGTKLTVL

molecular target: T1, EGFRvIII expressed on cells (CHO^EGFRvIII, F98^EGFRvIII) (UniProt P00533 25-1210); experiment: flow cytometry on F98^EGFRvIII cells; scFv detected with anti-His followed by FITC-conj. goat anti-mouse IgG, mean fluorescence intensity
T1 construct: whole, on cells; the vIII deletion must be applied; also called deletion mutant EGFRvIII

Row | Binder | EC50 (read off the curve) [nM]
1 | B1 | 2
2 | B2 | ~2
3 | B3 | ~2
4 | B4 | ~2
5 | B5 | ~2
6 | B6 | ~1
7 | B7 | ~2
8 | B8 | ~2
9 | B9 | ~2
10 | B10 | ~2

molecular target: T2, wild type EGFR expressed on cells (CHO^EGFR, F98^EGFR) (human, UniProt P00533 25-1210); experiment: flow cytometry on F98^EGFR cells; scFv detected with anti-His followed by FITC-conj. goat anti-mouse IgG
T2 construct: whole, on cells; also called native EGFR; EGFRwt
Experimental: After a second washing cycle, the cells were incubated with 0.1 mL of 15 μg/mL FITC-conjugated goat anti-mouse IgG antibodies under the same conditions as before. As a control, cells were incubated with the anti-His IgG 13/45/31 followed by the FITC-conjugated goat anti-mouse IgG antibodies without scFvs. The cells were then washed again and resuspended in 0.2 mL of FACS buffer containing 2 μg/mL propidium iodide in order to exclude dead cells. The fluorescence of 1×10⁴ living cells was measured using a Beckman-Coulter FC500 MPL flow cytometer using the MXP software (Beckman-Coulter, Krefeld, Germany) or a Millipore Guava EasyCyte flow cytometer using the Incyte software (Merck Millipore, Schwalbach, Germany). Mean fluorescence intensities of the cell samples were calculated using CXP software (Beckman-Coulter, Krefeld, Germany) or Incyte software (Merck Millipore, Schwalbach, Germany).
In case of analysis with Beckman-Coulter FC500 MPL flow cytometer 0.5×10⁶ cells/staining and in case of Millipore Guava EasyCyte flow cytometer only 0.25×10⁶ cells/staining were used.

Row | Binder | binding result
11 | B2 | no binding (tested: about 3300 nM)
12 | B3 | no binding (tested: about 3300 nM)
13 | B4 | no binding (tested: about 3300 nM)
14 | B5 | no binding (tested: about 3300 nM)
15 | B6 | no binding (tested: about 3300 nM)
16 | B7 | no binding (tested: about 3300 nM)
17 | B8 | no binding (tested: about 3300 nM)
18 | B9 | no binding (tested: about 3300 nM)
19 | B10 | no binding

molecular target: T3, EGFRvIII-Fc fusion antigen (human, UniProt P00533 25-645); experiment: ELISA on coated EGFRvIII-Fc; TandAb detected with Protein L-HRP, Abs(450nm) [EGFRvIII binding]

Row | Binder | EC50 (read off the curve) [nM]
20 | B11 | ~4
21 | B12 | ~1
22 | B13 | 0.9

molecular target: T3, EGFRvIII-Fc fusion antigen; experiment: SPR Biacore T200, EGFRvIII-Fc captured via anti-hu Fc, scFv analyte, 1:1 model;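 also: Multi-cycle kinetics on a CM5 chip in HBS-P+ running buffer, 180 s scFv association then 540 s dissociation, with blank flow cell signals subtracted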
Experimental: Anti-hu Fc IgG CM5-chip was prepared by covalent amine coupling by using the Amine-Coupling-Kit (GE), according to the instructions of the manufacturer. The IgG was diluted in the provided immobilization buffer (10 mM sodium acetate, pH 5.0) to a concentration of 25 μg/ml. For the coupling procedure, the predefined method “Amine” of the Biacore T200 control software was applied. A target level between 5000-10000 RU for all 4 flow cells was reached. The surface of the chip was activated with EDC/NHS before injecting the recombinant protein solutions. Free binding sites on the surface were blocked with ethanolamine. 1×HBS-P+ was selected as a running buffer for the entire coupling procedure.
Flowcell 1 and 3 were blanks. 1×HBS-P+ was used as running buffer for the entire procedure. The scFv antibodies were injected at a flow rate of 30 μL/min for 180 sec over all four flowcells. Signals measured in the flowcell 1 without captured antigen were subtracted from signals in the flowcell 2 to correct the binding curves for background binding. Signals measured in the flowcell 3 without captured antigen were subtracted from signals in the flowcell 4 to correct the binding curves for background binding. After 540 sec dissociation time the chip was regenerated as described below.
The Kinetics of scFv antibodies were determined in MCK (Multi Cycle Kinetic) measurements. For estimation of apparent binding affinities the binding curves were evaluated using the “Kinetic” method included in the Biacore evaluation software. By this method the binding curves are globally fitted by the software using the “Langmuir 1:1 interaction model”.

Row | Binder | KD improvement factor vs parental scFv Li3G30 [fold] | Kd [nM] | kOFF improvement factor vs parental scFv Li3G30 [fold] | kON improvement factor vs parental scFv Li3G30 [fold] | koff [s⁻¹] | kon [M⁻¹ s⁻¹]
23 | B1 | 10.8 | 0.72 | 2 | 5.2 | 0.0006 | 830000
24 | B2 | 11.1 | 0.7 | 1.5 | 7.5 | 0.0008 | 1.2e+06
25 | B14 | 3.1 | 2.54 | 1.3 | 2.4 | 0.00096 | 380000
26 | B3 | 6.6 | 1.18 | 2.4 | 2.7 | 0.0005 | 430000
27 | B4 | 6 | 1.3 | 0.3 | 18.8 | 0.0038 | 3e+06
28 | B5 | 5 | 1.56 | 1.1 | 4.3 | 0.0011 | 690000
29 | B6 | 96.3 | 0.08 | 4 | 23.8 | 0.0003 | 3.8e+06
30 | B7 | 29.9 | 0.26 | 4.1 | 6.9 | 0.00029 | 1.1e+06
31 | B8 | 16.3 | 0.48 | 0.8 | 20.6 | 0.0016 | 3.3e+06
32 | B9 | 11.6 | 0.67 | 1.5 | 7.5 | 0.0008 | 1.2e+06
33 | B10 | 49.6 | 0.16 | 5.2 | 8.8 | 0.00023 | 1.4e+06

molecular target: T1, EGFRvIII expressed on cells …; experiment: cell-based or functional assay

Row | Binder | EC50 in the cytotoxicity assay (CHO^EGFRvIII target cells) [nM]
34 | B15 | 0.025
